This test concerns the target serum IgE of birch pollen allergic (Bet v 1 allergic) patients. Description: ELISA inhibition: BM4 as inhibitor in serial dilutions, Bet v 1a immobilized at 200 ng/well, 5 sera.

B1: BM4 (protein)
chain: GVFNYETETTSVIPAARLFKAFILDGDNLFPKVAPQAISSVENIEGNGGPGTIKKISFPEGFPFKYVKDRVDEVDHTNFKYNYSVIEGGPIGDTLEKISNEIKIVATPSGSTIKSISNKYHTKGDHEVKAEQVKASKEMGETLLRAVESYLLAHSDAYN
As for B1, the fold reduced patients' IgE binding capacity compared to Bet v 1a lay in the range of 100 to 1000 fold.

The record behind these values is US9040054B2.
